Assays:
Experiment in all cases: peptide ELISA, 0.5 µg/well scFv
[1] = target: PSGL-1 (residues 42-58) derived peptide, sulfated at 3rd tyrosine position
[2] = target: GPIb (residues 268-285) derived peptide, sulfated at 3rd tyrosine position
[3] = target: PSGL-1 (residues 42-58) derived peptide, non-sulfated
[4] = target: GPIb (residues 268-285) derived peptide, non-sulfated
[5] = target: PSGL-1 (residues 42-58) derived peptide, sulfated at 1st tyrosine position
[6] = target: PSGL-1 (residues 42-58) derived peptide, sulfated at 2nd tyrosine position
[7] = target: CCR5 (residues 1-18) derived peptide, sulfated at 3rd tyrosine position
[8] = target: CCR5 (residues 1-18) derived peptide, non-sulfated
[9] = target: GPIb (residues 268-285) derived peptide, sulfated at 1st tyrosine position
[10] = target: CCR5 (residues 1-18) derived peptide, sulfated at 2nd tyrosine position
[11] = target: CCR5 (residues 1-18) derived peptide, sulfated at 1st tyrosine position

## N06 scFv (negative control)
[1]
  ELISA read-out at 450 nm: 0.06 OD 450 nm
[2]
  ELISA read-out at 450 nm: 0.07 OD 450 nm
[3]
  ELISA read-out at 450 nm: 0.06 OD 450 nm
[4]
  ELISA read-out at 450 nm: 0.07 OD 450 nm
[5]
  ELISA read-out at 450 nm: 0.06 OD 450 nm
[6]
  ELISA read-out at 450 nm: 0.06 OD 450 nm
[7]
  ELISA read-out at 450 nm: 0.06 OD 450 nm
[8]
  ELISA read-out at 450 nm: 0.06 OD 450 nm
[9]
  ELISA read-out at 450 nm: 0.07 OD 450 nm
[10]
  ELISA read-out at 450 nm: 0.06 OD 450 nm
[11]
  ELISA read-out at 450 nm: 0.06 OD 450 nm

Reference: patent US20080274100A1
